Measurements published in patent US20230192860A1 (Bristol-Myers Squibb, published 2023).

Key:
[1] = biological target: T1, human VISTA on cells (293T cells ectopically expressing full-length human VISTA); AML3 cells and human … (human, UniProt Q9H7M9 33-311); assay: cell-based or functional assay
T1 sequence: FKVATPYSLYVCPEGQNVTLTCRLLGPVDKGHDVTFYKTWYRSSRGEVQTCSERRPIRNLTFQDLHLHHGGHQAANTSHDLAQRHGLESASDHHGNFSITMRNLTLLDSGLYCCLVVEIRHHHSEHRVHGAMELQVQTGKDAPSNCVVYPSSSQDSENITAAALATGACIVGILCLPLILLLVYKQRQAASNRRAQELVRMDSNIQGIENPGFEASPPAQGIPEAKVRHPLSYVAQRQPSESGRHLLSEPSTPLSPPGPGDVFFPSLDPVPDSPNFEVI

[2] = biological target: T2, monovalent hVISTA-ECD (amino acids 32-193 of SEQ ID NO: 1 with a 7xHis tail) (human, UniProt Q9H7M9 33-193); assay: SPR 37C, Ab on Protein A, hVISTA-ECD 50-5 nM, pH 6.0, average
T2 construct: analyte of the SPR assays; also called huVISTA-His; human VISTA-ECD
Procedure, shortened: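 Biacore T100 at 37C: antibodies (IgG1.3 format, 25 nM in PBST pH 7.4) captured on Protein A, then 50 - 5 nM monovalent hVISTA-ECD injected in pH 7.4 or 6.0 running buffer. Reference- and blank-subtracted sensorgrams fit to 1:1 model; KD = koff/kon.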

[3] = biological target: T2, monovalent hVISTA-ECD (amino acids …); assay: SPR 37C, Ab on Protein A, hVISTA-ECD 50-5 nM, pH 7.4, average
Method: Binding of several preparations of each of the ‘029 progeny clones and of the parent ‘029 antibodies, formatted as IgG1.3 antibodies, to human VISTA at pH 6.0 and 7.4 was measured by Surface plasmon resonance (SPR). SPR analysis was performed to measure koff and KD binding affinity measurements for VISTA Abs at acidic and neutral pHs using a Biacore® T100 instrument (GE Healthcare). […] Antibodies were diluted to 25 nM in PBST pH 7.4, and were captured across active biosensor flow cells at 5 ul/min for 60 seconds. A concentration series of 50 - 5 nM monovalent hVISTA-ECD (SEQ ID NO: 325) was prepared in pH 7.4 and 6.0 running buffers, and was injected over the captured antibodies at 40 ul/min to measure association and dissociation. Two 15 second injections of 10 mM glycine pH 1.5 were used to regenerate the Protein A capture surface between assay cycles. Rate constants ka (kₒₙ) and kd (koff) were derived from reference flow cell and 0 nM blank-subtracted sensorgrams, and were fit to a 1:1 binding model in Biacore® T200 Evaluation Software v.2.0. The affinity constant, KD was calculated as the ratio of rate constants koff/kₒₙ for each VISTA antibody.

[4] = biological target: T2, monovalent hVISTA-ECD (amino acids …); assay: SPR, Ab on Protein A, hVISTA 100-7.8 nM, pH 7.4
Method: (§1) Further binding kinetic experiments were performed at various pHs on VISTA antibodies described herein by SPR as generally described in Example 9 above. Antibodies were normalized to 50 nM concentration in PBST pH 7.4 and captured on a Protein A CM5 chip (ID 4931) by injecting for 45 seconds at a 5 µL/min flow rate. An 8-point human VISTA titration ([…]) was prepared in PBST at pH 7.4, 6.9, 6.45, and 6.0. Titrations were injected over the captured antibodies for 180 seconds at 30 µL/min. Sensorgrams were fit to a 1:1 binding model in T200 evaluation software and the kinetic constants were reported.

[5] = biological target: T2, monovalent hVISTA-ECD (amino acids …); assay: SPR 37C, Ab on Protein A, hVISTA-ECD 50-0.2 nM, column headed pH 7 (running buffer pH 7.4 in the text)
Method: (§2) Surface plasmon resonance (SPR) analysis was performed to measure the association rates (defined as ka or kₒₙ, 1/Ms units), dissociation rates (defined as kd or koff, s⁻¹ units) and affinity constants (defined as KD, M units) for VISTA Abs at acidic and physiological pHs using a Biacore® T200 instrument (GE Healthcare). […] Antibodies were diluted to 20 nM in PBST pH 7.4, and were captured across active biosensor flow cells at 5 ul/min for 50 seconds. A concentration series of 50 - 0.2 nM monovalent hVISTA-ECD (SEQ ID NO: 325) was prepared in pH 7.4 and 6.0 running buffers, and was injected over the captured antibodies at 40 ul/min to measure association and dissociation. Two 15 second injections of 10 mM glycine pH 1.5 were used to regenerate the Protein A capture surface between assay cycles. Rate constants kₐ (kₒₙ) and kd (kₒff) were derived from reference flow cell and 0 nM blank-subtracted sensorgrams, and were fit to a 1:1 binding model in Biacore® T200 Evaluation Software v.2.0.

[6] = biological target: T2, monovalent hVISTA-ECD (amino acids …); assay: SPR 37C, Ab on Protein A, hVISTA-ECD 50-0.2 nM, pH 6.0
Method: as §2

[7] = biological target: T2, monovalent hVISTA-ECD (amino acids …); assay: SPR, pH 7.4 over pH 6.0
Method: as §1
Each table reports the data at one of the four tested pHs (7.4, 6.9, 6.45, and 6.0, respectively). The 8-point hVISTA titration used in these assays was chosen to provide increased confidence in kinetic values reported at neutral pH conditions. A relatively stringent cutoff for non-binding was applied in this assay. Certain progeny of P1-061029 antibody (P1-068757, ‘759, ‘765, ‘771, and ‘775) show no binding to hVISTA at micromolar concentrations at pH 7.4, while ‘761 and ‘767 show no binding to hVISTA at 100 nM at pH 7.4 but do show binding to hVISTA at micromolar concentrations.

[8] = biological target: T2, monovalent hVISTA-ECD (amino acids …); assay: SPR 37C, Ab on Protein A, hVISTA-ECD 50-5 nM, pH 6.0, average; ka printed Too fast, KD ND
[9] = biological target: T3, BSA (Calbiochem catalog #126593) (UniProt P02769 25-607); assay: SPR 25C, Ab on Protein A, pH 6 and pH 7.4
T3 construct: pI control protein
T3 sequence (P02769 25-607 limits assumed): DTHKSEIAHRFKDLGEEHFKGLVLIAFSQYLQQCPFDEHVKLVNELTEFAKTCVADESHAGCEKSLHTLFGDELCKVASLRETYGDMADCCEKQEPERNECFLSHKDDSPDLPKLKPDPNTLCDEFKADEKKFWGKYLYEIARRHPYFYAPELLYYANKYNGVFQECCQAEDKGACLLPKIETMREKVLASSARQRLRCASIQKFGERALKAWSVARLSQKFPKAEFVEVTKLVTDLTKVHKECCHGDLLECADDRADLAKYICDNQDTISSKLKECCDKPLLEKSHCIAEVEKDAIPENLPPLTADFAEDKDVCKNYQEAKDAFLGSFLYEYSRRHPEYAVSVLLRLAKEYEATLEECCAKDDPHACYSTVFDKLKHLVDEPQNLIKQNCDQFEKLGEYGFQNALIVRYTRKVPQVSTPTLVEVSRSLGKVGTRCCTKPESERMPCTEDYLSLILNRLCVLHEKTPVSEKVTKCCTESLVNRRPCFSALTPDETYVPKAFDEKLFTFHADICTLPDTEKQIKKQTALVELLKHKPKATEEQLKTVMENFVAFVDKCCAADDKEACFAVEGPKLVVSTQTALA

[10] = biological target: T4, avidin (ThermoFisher Scientific catalog #21128) (UniProt P02701 25-152); assay: SPR 25C, Ab on Protein A, pH 6 and pH 7.4
T4 construct: pI control protein
T4 sequence (P02701 25-152 limits assumed): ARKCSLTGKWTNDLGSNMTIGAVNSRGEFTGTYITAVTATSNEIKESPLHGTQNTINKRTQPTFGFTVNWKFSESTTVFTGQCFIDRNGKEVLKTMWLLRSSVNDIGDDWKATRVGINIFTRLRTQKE

[11] = biological target: T2, monovalent hVISTA-ECD (amino acids …); assay: SPR, Ab on Protein A, hVISTA 100-7.8 nM, pH 7.4 (second row of this ligand)

B1: VISTA.5 (mAb1) (antibody, V domains shown)
VH: AVQLQESGPGLVRPSQSLSLTCTVTDYSITSDYAWNWIRQFPGSKLEWLGFIGYSGNTNYNPSLESRISITRHTSKNQFFLHLNSMTTEDTATYYCARSLYGGSHWYFDVWGAGTTVTVSS
VL: DIVLTQSPASLAVSLGQRATISCRGSESVEYYGTILMQWYQQKPGQPPKLLIYGASNVESGVPARFSGSGSGTDFSLNIHPVEEDDIAMYFCQQSRKVPWTFGGGTKLEIK
EC50, AML3 viability (Cell Titer Glo) with anti-human IgG secondary antibody-drug conjugate [1]: 0.485 µg/mL

B2: P1-061015.IgG1.3 (antibody, V domains shown)
VH: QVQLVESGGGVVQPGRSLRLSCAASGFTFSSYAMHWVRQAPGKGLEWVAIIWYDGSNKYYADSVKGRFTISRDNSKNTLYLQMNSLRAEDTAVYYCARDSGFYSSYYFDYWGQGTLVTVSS
VL: EIVLTQSPATLSLSPGERATLSCRASQSVSSSYLAWYQQKPGQAPRLLIYDASNRATGIPARFSGSGSGTDFTLTISSLEPEDFATYYCQQYNSYPYTFGQGTKLEIKR
notes: IgG1.3
Kd [2]: 0.54 nM | koff [2]: 0.00095 s⁻¹ | kon [2]: 1.8e+06 M⁻¹ s⁻¹ | Kd [3]: 8.8 nM | koff [3]: 0.002 s⁻¹ | kon [3]: 230000 M⁻¹ s⁻¹ | Kd [4]: 5.12 nM | koff [4]: 0.00168 s⁻¹ | kon [4]: 329000 M⁻¹ s⁻¹ | koff [5]: 0.0023 s⁻¹ | koff [6]: 0.0014 s⁻¹ | 7.4 KD/ 6.0 KD [7]: 8.2 | 7.4 kd/ 6.0 kd [7]: 1.1

B3: P1-068740 (antibody, human IgG1, kappa, V domains shown)
VH: QVQLVESGGGVVQPGRSLRLSCAASGFTFSDYAMHWVRQAPGKGLEWVAIIWYDGSDKDYADSVKGRFTISRDNSKNTLYLQMNSLRAEDTAVYYCARDSGFYDSYYFDDWGQGTLVTVSS
VL: EIVLTQSPATLSLSPGERATLSCRASQSVSSSYLAWYQQKPGQAPRLLIYDASNRATGIPARFSGSGSGTDFTLTISSLEPEDFATYYCQQYNSYPYTFGQGTKLEIKR
notes: IgG1.3
koff [8]: 0.047 s⁻¹

B4: P1-068767.IgG1.3 (antibody, V domains shown)
VH: EVQLVESGGGLVQPGKSLRLSCAASGFTLEDYAMHWVRQAPGKGLEWVSGIDWNSENIGYADSVKGRFTISRDNAKNSLYLQMNSLRTEDTALYYCAKVPGYSGGWIDAEDDWGQGTMVTVSS
VL: not shown
notes: IgG1.3; also called P1-068767-22; P1-068767 hIgG1.3f
binding result [9]: no binding (tested: 10 RU; analyte 100-10 nM) | binding result [10]: no binding (tested: 10 RU; analyte 100-10 nM)

B5: P1-72000 (P1-061029_F100fE_V102D) (antibody, V domains shown)
VH: EVQLVESGGGLVQPGKSLRLSCAASGFTLDDYAMHWVRQAPGKGLEWVSGINWNSANIGYADSVKGRFTISRDNAKNSLYLQMNSLRTEDTALYYCAKVPGYSGGWIDAEDDWGQGTMVTVSS
VL: not shown
notes: also called P1-072000-3
Kd [11]: 1400 nM | koff [11]: 0.032 s⁻¹ | kon [11]: 24000 M⁻¹ s⁻¹ | Kd [4]: 2700 nM | koff [4]: 0.038 s⁻¹ | kon [4]: 14000 M⁻¹ s⁻¹ | 7.4 KD/ 6.0 KD [7]: 258 | 7.4 kd/ 6.0 kd [7]: 14.2
